The DeepSol protein solubility set

Experiment: soluble on expression in E. coli; label from the status in PepcDB or PDB records

| Sequence | soluble on expression in E. coli |
| --- | --- |
| MSLINTQRLVDHFLQLIQIDSESGNEKKIAETLAEQLGELGFTVHKLPVPAEVSNGFNLYARLEGTLNDSILFSCHMDTVKPGIGIEPVIEDGIIRSKGNTILGGDDKSGIAAILEAVRVLRDSQQAHKTIEIAFTVHEEGGLKGSEHFDMSKVQAEKAIVLDTGGPIGTIVRAAPGQQKIVALIKGKPAHAGLVPEDGISAIAVAADAITQMKLLRIDEETTANIGIVQGGQATNIVMPELKIVAEARSLNDAKLEAQVQHMIETFERAAEKHGATVEIESTRAYNAFKLEEDNAHIQAIKASFETIGIEPKTKLSGGGSDANNFNAKGLTTVNLSTGMAKVHTTEEYIAIADMVKIAEFVCAYTTA | not soluble |
| MPTVNVIGAGLAGSEAAWQIAQAGVDVNLYEMRPVKMTPAHHTSNFAELVCTNSLRANQITNAVGLLKEEMRQLHSIIIQSADATAVPAGGALAVDREPFSELVTQKLTSNSHIHVVNEELSAFPDGITVVATGPLTAPGLAQAIVDLNGEAGLSFFDAAAPILDANTINEDIVYKKSRYDRGEAAYLNCPMTKDEFLAFYQALVSAEVAEGHDFEKMTVFEGCMPIEVMAKRGIKTMLFGPLKPVGLEDPRTGKEPYAVVQLRQDNAAASLYNMVGFQTHLKWGEQKRVFRLIPGLENVQIVRYGVMHRNTFMKSPVVLEPTYASKRRPDLFFAGQMTGVEGYVESAASGLIAGINATRMALGETPVIFPETTAMGSMAHYITHTSAHHFQPMNANFGIMPALTVKIRNKKERNQQLADRALKDLATFQAGMNRVEQVLEHHHHHH | soluble |
| MGSDKIHHHHHHMEETAETPAAVIPPPPPEDEPAELPATLGFVSHQPVMDRQQRVVAYDFFVRQGKRNIEAGKQQEFDRLLLATLHNMDIFRLLAYRRAFVHIAMTSLDDPQLRGMPAGSVIFVLEPLPGMVVAEHMLRQLDELQKLGLRFALEPAAYDQNMLSPALQADLFSRVDFMVLDFAGPSTRVLAPILDQLPKRYPGARWLARNVGTAEDMDVCLRAPGHNRFALFHGPFVTTAHALEGGKVDTNQTRVLQIMRLLRTNADPKEVEAQFKLDSVLLFKLLRFINSPIHGLSRKVQTIEETLLLLGRETLFKWLSMLLFTSRKEDGTALSLLEKSLIRARFMEKLGGYRGNKLEAEHLFLTGMFSLLDVLLNQPFPDVLDPLELPLTVREAVVERKGIFAPHLALAMACEQGDNVQIEALAKVLDFDLDLANQYYLDSVVWAQVVLRDSEVHNNVEAV | not soluble |
| MSFLISFDKSKKHPAHLQLANNLKIALALEYASKNLKPEVDNDNAAMELRNTKEPFLLFDANAILRYVMDDFEGQTSDKYQFALASLQNLLYHKELPQQHVEVLTNKAIENYLVELKEPLTTTDLILFANVYALNSSLVHSKFPELPSKVHNAVALAKKHVPRDSSSFKNIGAVKIQADLTVKPKDSEILPKPNERNILITSALPYVNNVPHLGNIIGSVLSADIFARYCKGRNYNALFICGTDEYGTATETKALEEGVTPRQLCDKYHKIHSDVYKWFQIGFDYFGRTTTDKQTEIAQHIFTKLNSNGYLEEQSMKQLYCPVHNSYLADRYVEGECPKCHYDDARGDQCDKCGALLDPFELINPRCKLDDASPEPKYSDHIFLSLDKLESQISEWVEKASEEGNWSKNSKTITQSWLKDGLKPRCITRDLVWGTPVPLEKYKDKVLYVWFDATIGYVSITSNYTKEWKQWWNNPEHVSLYQFMGKDNVPFHTVVFPGSQLGTEENWTMLHHLNTTEYLQYENGKFSKSRGVGVFGNNAQDSGISPSVWRYYLASVRPESSDSHFSWDDFVARNNSELLANLGNFVNRLIKFVNAKYNGVVPKFDPKKVSNYDGLVKDINEILSNYVKEMELGHERRGLEIAMSLSARGNQFLQENKLDNTLFSQSPEKSDAVVAVGLNIIYAVSSIITPYMPEIGEKINKMLNAPALKIDDRFHLAILEGHNINKAEYLFQRIDEKKIDEWRAKYGGQQV | not soluble |
| MSDQPIVLTSFYPKEGGARDKILLDGKNFGTDVSKIKVYFNNARASVVSSSGSRIYAIVPRLPGDNPRISVVVDTDSVAYEETYAYHTQALVSTVTGNGETSFLAGTLSTAQVYGKYLDLDAEGNLFMSWRDGGTFGIARINEQQNIVTPLIEADAANRILYANGLTVDRATGMLTAAHESVKEVTFTFDPREAWYPRQRNIKYSQSDLNSIVDADRYKNFVTFCPYDGYLYTRYRDGKIAKIDPNTFEGHIIHQGPSGSQYGQAINPAKPWLLYITLHSNAPTAYRQGISVLDLRDPDGTGGFKRLNAPGGSAFRDGPIEDALFNYPKDIKFDNDGNMFVADYGNHCIRMISADNIVTTVAGQPGVAGYKDGGPVESLFKNPWGVAVNEQGDIYIADWGNARIRKLVIELEHHHHHH | soluble |
| MGSDKIHHHHHHMEKIKGKNTVNCEICLHNSKTRPMFKHEGKNICIECLNALKFPRNFEEMKNEVMDYLDELRIRNNKYNCILGFSGGKDSVVALYLLVKELRIRPLCVTVDNGYLAEEALTNCKNVAKYFGVDWLVINKDFTKFFKETISKGESPCRVCSDMNMHELWQFARQTNIDTIVTGHELPFGTTAIRGMKKGINMLRLLVAYKLTEEDRYNILKEIPWEKPDLGGYTTNCLVLAPALVEFKKKHGFSFEYDRVSAMIRYGLMTREEAEEALKCPEVSDEIYEELKKRGLDFKNLKE | not soluble |
| GSTDSLPGKFEDMYKLTSELLGEGAYAKVQGAVSLQNGKEYAVKIIEKQAGHSRSRVFREVETLYQCQGNKNILELIEFFEDDTRFYLVFEKLQGGSILAHIQKQKHFNEREASRVVRDVAAALDFLHTKGIAHRDLKPENILCESPEKVSPVKICDFDLGSGMKLNNSCTPITTPELTTPCGSAEYMAPEVVEVFTDQATFYDKRCDLWSLGVVLYIMLSGYPPFVGHCGADCGWDRGEVCRVCQNKLFESIQEGKYEFPDKDWAHISSEAKDLISKLLVRDAKQRLSAAQVLQHPWVQGQAPEKG | soluble |
| MISGLSHITLIVKDLNKTTAFLQNIFNAEEIYSSGDKTFSLSKEKFFLIAGLWICIMEGDSLQERTYNHIAFQIQSEEVDEYTERIKALGVEMKPERPRVQGEGRSIYFYDFDNHLFELHAGTLEQRLKRYHE | soluble |
| MGSDKIHHHHHHMNFAMTPEEAKTNEAYCRALIELLYQLADDDYIVAYRGSEWLGLAPHIEEDVAFSSITQNTMGHAVMFYELLEQLGEGDADTLAHERDPALRRNSVYLEKKNGSGTYLDEPHYDWALTVIRHFFYETFKKIRLEALTQSSYVPLAKAAQRVLMEQPYHLAHWKTWLCQLQQSTEEAKNRLMERIDEAWLEILDMLELGLKGGEMVEYQLITDEATIQQQWVKEMNKSLFYVPSQSLQKQEGNGRNGEHTDDLQQALSTCSEVYNSDRHAVW | not soluble |
| MQRVTITLDDDLLETLDSLSQRRGYNNRSEAIRDILRGALAQEATQEHGTQGFAVLSYVYEHEKRDLASRIVSTQHHHHDLSVATLHVHINHDDCLEIAVLKGDMGDVQHFADDVIAQRGVRHGHLQCLPKED | not soluble |
| MTEEFNESMINDIKEGDKVTGEVQQVEDKQVVVHINGGKFNGIIPISQLSTHHIENPSEVVKVGDEVEAYVTKIEFDEENDTGAYILSKRQLETEKSYEYLQEKLDNDEVIEAEVTEVVKGGLVVDVGQRGFVPASLISTDFIEDFSVFDGQTIRIKVEELDPENNRVILSRKAVEQLENDAKKASILDSLNEGDVIDGKVARLTNFGAFINIGGVDGLVHVSELSHGTCSNTRRSCVSRLEHHHHHH | soluble |
| MKIVIAPDSFKESLSADKCCQAIKAGFSTVFPDARYVCLPIADGGEGTVDAMVAATGGKRVSVDVSGPMGEKVNGFYGLTGDGKTAIIEMAAASGLMLVAPEARNPLLASSFGTGELIRHALDAGIRHIILGIGGSATVDGGMGVAQALGVRFLDAQGTPLGAGGGNLSRLASIDLQGCDPRISECRIEVACDVDNPLVGPRGAAAVFGPQKGATPEMVETLENGLRNYARVLHALTGRDMSQIPGGGAAGGMGIAAIVFLEAEMKPGIEIVMQAVKLEEAVKEASLVITGEGRIDSQTAGGKAPIGVASVAKRHHVPVIGIAGVLGDGVEVVHRHGIDAVFSILPRLAPLPEVLANGEQNLYHSACNIARVIKLGQDIGTR | not soluble |
| MPILTIREVCNINHWGIGYYDVDDSGEIIVRPNPSQHNQTVSLQKLTEAVQQKHQARLPVLFCFPQILEHRLRDINRAFQTAREECGYKGGYCLVYPIKVNQHRRVIESLMSSGQPHGLEAGSKAELMAVLAHAGNRQTLIVCNGYKDREYIRFALMGEKLGHQVYLVIEKLSEIQMVLEEAEKLGIKPRLGVRARLASQGSGKWQSSGGEKSKFGLSASQVLQLVDILKQKNRLDCLQLLHFHLGSQLGNIRDVATGVHESARFYVELHKLGVNIRCFDVGGGLGVDYEGNRTQSDCSVNYSLNEYAATVVWGISQACLEHGLPHPTIITESGRGITAHHAVLVANVIGVERYKPRRLDAPSPEAPRVLHSMWETWTDISASREKRSLRSWIHEGQFDLADVHNQYNVGLLSLAQRAWAEQLYLNICHEVGELFNEKHRSHRTIIDELQERFADKLYVNFSLFQSLPDAWGIDQLFPVCPITGLNEPIARRAVLLDITCDSDGTIDHYIDGDGIAGTMPMPDYPEEEPPLLGFFMVGAYQEILGNMHNLFGDTATADVVVGEDGQFTVIDYDEGNTVADMLEYVYQDPKELMKRYREQIEHSDLPASQAMSFLKELEAGLNGYTYLEDE | not soluble |
| MEENTKEMIVIDSVDRYNEIFGLETRHPLVSIIDLAKSTTWPTRAWFRYEVYALYLKNVKCGDIKYGRQYYDYQDGTIVCFAPGQITDLEMLPNIQPNAHGILFHPDLIRGTALGQEIKKYSFFSYETNEALHISEEERQTVMDCLQKITIELEHSIDKHSRRLICANIGLLLDYCMRFYERQFDTRNGVNKDIIVRFEHLLNEYFEGDAPQNQGLPSVKYFADKVFLSANYFGD | not soluble |
| MSLKIIILGAGQVGGTLAENLVGENNDITVVDKNADRLRDLQDKYDLRVVNGHASHPDVLREAGAQDADMLVAVTNTDETNMAACQVAFTLFNTPNRIARIRSPQYLAEKEALFQSGAVPVDHLIAPEELVTSYIERLIQYPGALQVVSFAEEKVSLVAVKAYYGGPLVGNALSALRDHMPHIDTRVAAIFRQGRPIRPQGTTIIEADDEVFFVAASNHIRSVMSELQRLEKPYRRIMIVGGGNIGASLAKRLEQTYSVKLIEHNYQRAEQLSEQLENTIVFCGDAADQELLSEENIDQVDVFIALTNEDETNIMSAMLAKRMGAKKAMVLIQRSGYVDLVQGGVIDVAISPQQATISALLTHVRRADIVNVSSLRRGAAEAIEAIAHGDESTSKVVGRAVGDIKLPPGTTIGAIVRGEEVLIAHDRTVIEQDDHVVMFLVDKKYVPDVETLFQPSPFFLEGHHHHHH | soluble |
| MSLKVAVVGLGDISHVHIHAIQNSTKAQLVAVCDENEKLSQQVPHVNYYNDLQTMIDSETLDCVHICLPHYLHVSATTTCVENGINVLQEKPLAVNAKEGLELVKLQRKYPNIKIGICFQNRYNATFQALQEIVESKTYGEVIGVKGLVTWFRPESYYTDKPWRGQMATAGGGVLINQSIHTLDLIQLLCGKIASIKGTVSQLLDYDIEVEDTASAHIKFENKANGMFFATNANFGNSNVELQIIFENEKFTIKDNILTRFNEAGEKIKIAEDEKMTGNKTYYGPSHGKLINAFYDCINNDSNNYVHPKDALTSIAMIDAIQKSSESLKTVQFDSEGHHHHHH | soluble |
| MSLEYKLTPSYLLKENMVLACGNILFADDGFSVHVIEKLQELLTEEEKENIALVDAGAGAPQQVLTLIDSEAKTKKIIVVDIIDYGLEPGEIKILTMDDLPKPEHTKVDSHDWPLSTTMYRVFRDAPHEIDFKVVGCQKKYVSEPDVVIELSEEVQNAVDVAVDIVLSELRGKPINEGHHHHHH | soluble |
